Test results reported in patent publication CN115785273A (DONGGUAN PENGZHI BIOTECHNOLOGY CO LTD, dated 2023).

Target: T1, PG I蛋白(fitzgerald，30R-AP038) (UniProt P0DJD8 16-388)
T1 construct: Commercial antigen; Pepsinogen I is a group of isozymogens (PGA3/PGA4/PGA5); also called 胃蛋白酶原I; HPG I
Assay: BLI, AMC sensors, antibody captured at 10 μg/mL, PG I protein in serial dilution in PBST

T1 sequence (P0DJD8 16-388): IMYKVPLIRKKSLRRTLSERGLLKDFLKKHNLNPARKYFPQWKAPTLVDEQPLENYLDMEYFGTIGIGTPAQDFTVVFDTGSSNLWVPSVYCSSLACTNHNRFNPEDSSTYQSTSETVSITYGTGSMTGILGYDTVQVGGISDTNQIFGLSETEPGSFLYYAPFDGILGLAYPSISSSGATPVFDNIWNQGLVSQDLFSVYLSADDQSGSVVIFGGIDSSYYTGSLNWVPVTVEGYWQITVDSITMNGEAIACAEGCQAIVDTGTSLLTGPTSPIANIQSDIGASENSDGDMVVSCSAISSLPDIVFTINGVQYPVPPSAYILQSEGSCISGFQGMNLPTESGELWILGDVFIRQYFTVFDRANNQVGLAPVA

For 对照抗体 (antibody), the Kd was 0.297 nM, the koff was 0.000273 s⁻¹ and the kon was 919000 M⁻¹ s⁻¹.

B1: Anti-HPG I 8C20单克隆抗体 (antibody, V domains shown)
VH: QVQLQQPGAELVRPGASVKLSCKASDYTFTSYWMNWVKQRPEQGLEWIGRIDPYDSETHYNQKFKDKAILTVDKSSSTAYMQLSSLTSEDSAVYYCARFSMVVAVYAMDYWGQGTSVTVSS
VL: DIQMTQSPASLSASVGETVTITCRASGNIHNYLAWFQQKQGKSPQILVYYAKTLADGVPSRFSGSGSGTQFSLKINSLQPEDFGSYYCQHFWSTPWTFGGGTKLEIK
Work on B1 yielded a Kd of 0.0309 nM, a koff of 2.85e-05 s⁻¹ and a kon of 921000 M⁻¹ s⁻¹.
